According to the supplement of paper PMC9112550, “Optimization of the antimicrobial peptide Bac7 by deep mutational scanning” (BMC Biology, 2022):

Tested on: Escherichia coli TOP10
Test: shrunken log2 fold change of peptide-encoding DNA abundance (4.5 h post-induction vs induction); higher = less antimicrobial activity (less host growth inhibition)
Conditions: time post-induction: 4.5 h; library: site-saturation at positions 5, 18, 19, 20
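Further: peptides expressed intracellularly from a pBAD plasmid library in pooled LB shake-flask culture, induced with 0.3% L-arabinose, DNA abundance read by NGS, three biological replicates, DESeq2 with apeglm shrinkage.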

Row | Sequence | shrunken log2 fold change
1 | RRIRDRPPRLPRPRPRPLHMPRP | -0.0438
2 | RRIRERPPRLPRPRPRPDMEPRP | -0.201
3 | RRIRYRPPRLPRPRPRPGMHPRP | -0.339
4 | RRIRLRPPRLPRPRPRPWLGPRP | 0.181
5 | RRIRERPPRLPRPRPRPATIPRP | -0.105
6 | RRIRGRPPRLPRPRPRPDCSPRP | 0.798
7 | RRIRFRPPRLPRPRPRPTCSPRP | -0.0827
8 | RRIRARPPRLPRPRPRPELRPRP | 1.14
9 | RRIRMRPPRLPRPRPRPYMDPRP | 0.000784
10 | RRIRFRPPRLPRPRPRPDSIPRP | -0.0087
11 | RRIRWRPPRLPRPRPRPSPRPRP | 0.299
12 | RRIRCRPPRLPRPRPRPENLPRP | -0.0208
13 | RRIRPRPPRLPRPRPRPCTDPRP | -0.0332
14 | RRIRQRPPRLPRPRPRPHKHPRP | -0.502
15 | RRIRQRPPRLPRPRPRPGACPRP | 0.206
16 | RRIRVRPPRLPRPRPRPNQCPRP | -0.264
17 | RRIRYRPPRLPRPRPRPPLRPRP | -0.151
18 | RRIRMRPPRLPRPRPRPIEMPRP | -0.0608
19 | RRIRTRPPRLPRPRPRPTWRPRP | 0.233
20 | RRIRHRPPRLPRPRPRPWGRPRP | 0.0574
21 | RRIRNRPPRLPRPRPRPCEFPRP | -0.398
22 | RRIRNRPPRLPRPRPRPKDWPRP | 0.0256
23 | RRIRNRPPRLPRPRPRPFTSPRP | -0.0528
24 | RRIRIRPPRLPRPRPRPCLDPRP | -0.0653
25 | RRIRPRPPRLPRPRPRPCLRPRP | -0.183

Row | Sequence | shrunken log2 fold change
26 | RRIRQRPPRLPRPRPRPCQWPRP | -0.205
27 | RRIRYRPPRLPRPRPRPIINPRP | -0.099
28 | RRIRQRPPRLPRPRPRPTQPPRP | 0.356
29 | RRIRWRPPRLPRPRPRPSYSPRP | -0.705
30 | RRIRYRPPRLPRPRPRPYPHPRP | -0.112
31 | RRIRARPPRLPRPRPRPSDMPRP | 0.16
32 | RRIRRRPPRLPRPRPRPHTEPRP | -0.0233
33 | RRIRQRPPRLPRPRPRPDQKPRP | 0.019
34 | RRIRVRPPRLPRPRPRPLGFPRP | 0.196
35 | RRIRLRPPRLPRPRPRPYMAPRP | -0.608
36 | RRIRGRPPRLPRPRPRPSQWPRP | 0.101
37 | RRIRMRPPRLPRPRPRPHHCPRP | -0.27
38 | RRIRDRPPRLPRPRPRPHKSPRP | -0.17
39 | RRIRWRPPRLPRPRPRPQYWPRP | -0.184
40 | RRIRKRPPRLPRPRPRPYDQPRP | 0.0359
41 | RRIRYRPPRLPRPRPRPKLIPRP | -0.775
42 | RRIRGRPPRLPRPRPRPESTPRP | 1.63
43 | RRIRDRPPRLPRPRPRPFCLPRP | 0.0132
44 | RRIRQRPPRLPRPRPRPWVSPRP | -0.0689
45 | RRIRVRPPRLPRPRPRPKKKPRP | -0.356
46 | RRIRQRPPRLPRPRPRPGCYPRP | -0.451
47 | RRIRQRPPRLPRPRPRPEYWPRP | 0.0626
48 | RRIRLRPPRLPRPRPRPKRKPRP | -0.314
49 | RRIRGRPPRLPRPRPRPYRKPRP | 0.176
50 | RRIRWRPPRLPRPRPRPDTAPRP | -0.192

Row | Sequence | shrunken log2 fold change
51 | RRIRHRPPRLPRPRPRPTITPRP | -0.384
52 | RRIRQRPPRLPRPRPRPPPKPRP | 0.876
53 | RRIRFRPPRLPRPRPRPIEYPRP | -0.00801
54 | RRIRMRPPRLPRPRPRPFEFPRP | -0.044
55 | RRIRVRPPRLPRPRPRPTDKPRP | -0.0288
56 | RRIRHRPPRLPRPRPRPDDMPRP | -0.11
57 | RRIRSRPPRLPRPRPRPTYRPRP | -0.195
58 | RRIRCRPPRLPRPRPRPFEYPRP | -0.548
59 | RRIRFRPPRLPRPRPRPNHDPRP | -0.332
60 | RRIRRRPPRLPRPRPRPMITPRP | -0.172
61 | RRIRDRPPRLPRPRPRPENCPRP | -0.0102
62 | RRIRFRPPRLPRPRPRPWLRPRP | -0.0551
63 | RRIRGRPPRLPRPRPRPAGLPRP | 0.479
64 | RRIRGRPPRLPRPRPRPMYNPRP | -0.104
65 | RRIRMRPPRLPRPRPRPSFMPRP | 0.0821
66 | RRIRWRPPRLPRPRPRPFQHPRP | 0.0415
67 | RRIRGRPPRLPRPRPRPGWCPRP | 0.484
68 | RRIRDRPPRLPRPRPRPEIAPRP | 1.31
69 | RRIRWRPPRLPRPRPRPFFWPRP | 1.17
70 | RRIRGRPPRLPRPRPRPYFSPRP | -0.00993
71 | RRIRTRPPRLPRPRPRPIPPPRP | 0.384
72 | RRIRYRPPRLPRPRPRPVNHPRP | -0.073
73 | RRIRRRPPRLPRPRPRPKEKPRP | -0.00936
74 | RRIRYRPPRLPRPRPRPASYPRP | -0.156
75 | RRIRVRPPRLPRPRPRPDNYPRP | -0.222

Row | Sequence | shrunken log2 fold change
76 | RRIRHRPPRLPRPRPRPETMPRP | 0.054
77 | RRIRARPPRLPRPRPRPCLKPRP | -0.0264
78 | RRIRERPPRLPRPRPRPHAVPRP | -0.34
79 | RRIRQRPPRLPRPRPRPGGTPRP | 0.11
80 | RRIRERPPRLPRPRPRPYTSPRP | -0.141
81 | RRIRERPPRLPRPRPRPCQYPRP | -0.138
82 | RRIRRRPPRLPRPRPRPNPTPRP | 0.0244
83 | RRIRNRPPRLPRPRPRPSVLPRP | 0.0978
84 | RRIRDRPPRLPRPRPRPDFYPRP | 0.00164
85 | RRIRMRPPRLPRPRPRPCATPRP | 2.58
86 | RRIRYRPPRLPRPRPRPCVMPRP | 0.0476
87 | RRIRLRPPRLPRPRPRPKVMPRP | -0.044
88 | RRIRFRPPRLPRPRPRPWYCPRP | -0.706
89 | RRIRLRPPRLPRPRPRPAWHPRP | 0.183
90 | RRIRSRPPRLPRPRPRPQFHPRP | -0.206
91 | RRIRVRPPRLPRPRPRPTYFPRP | -0.0832
92 | RRIRNRPPRLPRPRPRPQQVPRP | -0.0087
93 | RRIRFRPPRLPRPRPRPPINPRP | -0.406
94 | RRIRCRPPRLPRPRPRPFQRPRP | -0.418
95 | RRIRARPPRLPRPRPRPMYCPRP | 0.0455
96 | RRIRKRPPRLPRPRPRPHSDPRP | 0.0765
97 | RRIRRRPPRLPRPRPRPGASPRP | 0.665
98 | RRIRQRPPRLPRPRPRPSDCPRP | -0.756
99 | RRIRERPPRLPRPRPRPLWRPRP | 0.0888
100 | RRIRTRPPRLPRPRPRPVTFPRP | -0.0266

Row | Sequence | shrunken log2 fold change
101 | RRIRRRPPRLPRPRPRPGIKPRP | -0.291
102 | RRIRGRPPRLPRPRPRPYWNPRP | -0.39
103 | RRIRFRPPRLPRPRPRPWIAPRP | -0.0534
104 | RRIRLRPPRLPRPRPRPDSWPRP | -0.139
105 | RRIRPRPPRLPRPRPRPNVMPRP | -0.341
106 | RRIRCRPPRLPRPRPRPAHMPRP | -0.249
107 | RRIRFRPPRLPRPRPRPWPFPRP | -0.455
108 | RRIRPRPPRLPRPRPRPALPPRP | 1.63
109 | RRIRGRPPRLPRPRPRPNRTPRP | -0.0769
110 | RRIRWRPPRLPRPRPRPEDPPRP | 0.157
111 | RRIRCRPPRLPRPRPRPSLKPRP | -0.23
112 | RRIRLRPPRLPRPRPRPPACPRP | 0.448
113 | RRIRTRPPRLPRPRPRPKFFPRP | -0.00469
114 | RRIRFRPPRLPRPRPRPGNWPRP | 0.724
115 | RRIRDRPPRLPRPRPRPNIMPRP | -0.367
116 | RRIRVRPPRLPRPRPRPEFGPRP | 0.177
117 | RRIRNRPPRLPRPRPRPWLMPRP | -0.13
118 | RRIRPRPPRLPRPRPRPWIRPRP | -0.175
119 | RRIRSRPPRLPRPRPRPQACPRP | 0.125
120 | RRIRMRPPRLPRPRPRPNHDPRP | -0.261
121 | RRIRKRPPRLPRPRPRPKTRPRP | 0.444
122 | RRIRQRPPRLPRPRPRPGATPRP | 0.273
123 | RRIRQRPPRLPRPRPRPLTPPRP | 0.31
124 | RRIRWRPPRLPRPRPRPLGWPRP | 2.31
125 | RRIRCRPPRLPRPRPRPICPPRP | -0.148

Row | Sequence | shrunken log2 fold change
126 | RRIRKRPPRLPRPRPRPCHCPRP | -0.241
127 | RRIRHRPPRLPRPRPRPRICPRP | 0.0205
128 | RRIRFRPPRLPRPRPRPHKAPRP | 0.0324
129 | RRIRVRPPRLPRPRPRPPYVPRP | -0.153
130 | RRIRPRPPRLPRPRPRPDRCPRP | 0.584
131 | RRIRTRPPRLPRPRPRPCGGPRP | 0.169
132 | RRIRWRPPRLPRPRPRPTYPPRP | -0.553
133 | RRIRVRPPRLPRPRPRPANCPRP | 0.031
134 | RRIRPRPPRLPRPRPRPFKYPRP | -0.0171
135 | RRIRDRPPRLPRPRPRPYKEPRP | -0.372
136 | RRIRNRPPRLPRPRPRPVKDPRP | -0.01
137 | RRIRPRPPRLPRPRPRPKDQPRP | 0.111
138 | RRIRLRPPRLPRPRPRPPGPPRP | 0.359
139 | RRIRVRPPRLPRPRPRPVNLPRP | -0.322
140 | RRIRMRPPRLPRPRPRPPREPRP | 1.19
141 | RRIRRRPPRLPRPRPRPIWSPRP | -0.000832
142 | RRIRFRPPRLPRPRPRPDTAPRP | -0.22
143 | RRIRHRPPRLPRPRPRPPQCPRP | 0.178
144 | RRIRVRPPRLPRPRPRPINFPRP | -0.458
145 | RRIRCRPPRLPRPRPRPCAHPRP | 0.0631
146 | RRIRMRPPRLPRPRPRPWCLPRP | -0.208
147 | RRIRMRPPRLPRPRPRPQNCPRP | 0.0712
148 | RRIRPRPPRLPRPRPRPGLVPRP | 0.287
149 | RRIRTRPPRLPRPRPRPWNEPRP | 0.00902
150 | RRIRRRPPRLPRPRPRPRNYPRP | 0.143
